Experimental findings from patent publication US10406218B2 (priority 2014, dated 2019) are described below.

First the molecules themselves.
B1: Rv0288: MTB antigen currently included in TB vaccines in clinical development (protein, UniProt P9WNK3 1-96, looked up)
ESAT-6-like protein EsxH: MSQIMYNYPAMLGHAGDMAGYAGTLQSLGAEIAVEQAALQSAWQGDTGITYQAWQAQWNQAMEDLVRAYHAMSSTHEANTMAMMARDTAEAAKWGG
B2: Rv1196: MTB antigen currently included in TB vaccines in clinical development (protein, UniProt L7N675 1-391, looked up)
PPE family protein PPE18: MVDFGALPPEINSARMYAGPGSASLVAAAQMWDSVASDLFSAASAFQSVVWGLTVGSWIGSSAGLMVAAASPYVAWMSVTAGQAELTAAQVRVAAAAYETAYGLTVPPPVIAENRAELMILIATNLLGQNTPAIAVNEAEYGEMWAQDAAAMFGYAAATATATATLLPFEEAPEMTSAGGLLEQAAAVEEASDTAAANQLMNNVPQALQQLAQPTQGTTPSSKLGGLWKTVSPHRSPISNMVSMANNHMSMTNSGVSMTNTLSSMLKGFAPAAAAQAVQTAAQNGVRAMSSLGSSLGSSGLGGGVAANLGRAASVGSLSVPQAWAAANQAVTPAARALPLTSLTSAAERGPGQMLGGLPVGQMGARAGGGLSGVLRVPPRPYVMPHSPAAG
B3: Rv1886c: MTB antigen currently included in TB vaccines in clinical development (protein, UniProt P9WQP1 41-325, looked up)
Diacylglycerol …: FSRPGLPVEYLQVPSPSMGRDIKVQFQSGGNNSPAVYLLDGLRAQDDYNGWDINTPAFEWYYQSGLSIVMPVGGQSSFYSDWYSPACGKAGCQTYKWETFLTSELPQWLSANRAVKPTGSAAIGLSMAGSSAMILAAYHPQQFIYAGSLSALLDPSQGMGPSLIGLAMGDAGGYKAADMWGPSSDPAWERNDPTQQIPKLVANNTRLWVYCGNGTPNELGGANIPAEFLENFVRSSNLKFQDAYNAAGGHNAVFNFPPNGTHSWEYWGAQLNAMKGDLQSSLGAG

The test system of this assay is T cells of LTBI and HC donors. The assay is described as follows: antigen reactivity in LTBI vs HC donors (LTBI-specific or crossreactive). In kind it is cell-based, human. As to conditions: response frequency and magnitude in LTBI vs HC donors, FIG. 10. The source says: The data herein implies that preexisting immunity and occasional boosting might be provided by exposure to NTMs, in a low MTB-complex exposure population such as the one from the general San Diego area. This might be viewed as desirable, or alternatively contributing an undesired confounding factor in evaluation of vaccination strategies. Regardless, whether or not preexisting, non-TB-complex related reactivity is present in the general population is an important issue has implication for the development of vaccination strategies. To further investigate this issue, epitope reactivity data (Lindestamm-Arlehamn et al, 2012) was mapped back to the specific antigens from which the epitopes were derived. Antigens recognized by 2 or more donors were further categorized as LTBI-specific or crossreactive according to the following criteria; antigens were categorized as LTBI-specific if there was a lack of reactivity in HC individuals, or if the ratio between response frequency and total SFC for LTBI/HC were >4. All other antigens were categorized as crossreactive.
B1: the “antigen reactivity category (LTBI-specific or crossreactive)” value (“antigen reactivity category” for short) is on record as “widely cross-reactive”.

On to B2, for which the “antigen reactivity category” value is reported as “exclusively specific”.

For B3, the “antigen reactivity category” value is given as “widely cross-reactive”.
